Source: US20250179161A1 (OTHAIR PROTHENA, published 2025)
Changes are numbered by the printed parent chain. Values joined by “and” are separate entries in the source; they are usually repeats but may differ in a detail not shown here. Identical values can stand only once.

Legend:
Amyloid Beta (Aβ) 1-42 [1] = molecular target: T1, Amyloid Beta (Aβ) 1-42 (human); experiment: direct ELISA on plate-coated Aβ42 fibrils (FIG. 21)
T1 construct: The same peptide was used in several aggregation states: fibrils, a heterogeneous aggregate mixture, and soluble oligomers or aggregates; also called Aβ42; Aβ 42
T1 sequence (peptide, as listed by the source): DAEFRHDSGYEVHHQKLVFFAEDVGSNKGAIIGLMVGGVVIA

Amyloid Beta (Aβ) 1-42 [2] = molecular target: T1, Amyloid Beta (Aβ) 1-42; experiment: SPR (BIAcore T200), Aβ1-42 fibrils immobilized on CM5, antibody as analyte, global 1:1 fit
Amyloid Beta (Aβ) 1-42 [3] = molecular target: T1, Amyloid Beta (Aβ) 1-42; experiment: direct ELISA on fibrillar Aβ1-42
Amyloid Beta (Aβ) 1-42 [4] = molecular target: T1, Amyloid Beta (Aβ) 1-42; experiment: SPR (BIAcore T200), Aβ1-42 fibrils immobilized on CM5, antibody as analyte, global 1:1 fit; apparent KD
Amyloid Beta (Aβ) 1-42 [5] = molecular target: T1, Amyloid Beta (Aβ) 1-42; experiment: direct ELISA, antibody titrated on 2.5 ug/ml plate-coated fibril Abeta; the row head of the drawn table reads 'IC50', the note below it says EC50; no unit in the table, x axis 'log ng/ml antibody' [left panel]
Amyloid Beta (Aβ) 1-42 [6] = molecular target: T1, Amyloid Beta (Aβ) 1-42; experiment: direct ELISA, fibril aBeta plate coat titrated, antibody held constant at 2 ug/ml; no unit in the table, x axis 'log ng/ml Abeta' [right panel]
Amyloid Beta (Aβ) 1-42 [7] = molecular target: T1, Amyloid Beta (Aβ) 1-42; experiment: competition ELISA, plate coated with fibril Aβ42, competitor hBP-biotin; IC50 of test divided by IC50 of hBP
Amyloid Beta (Aβ) 1-42 [8] = molecular target: T1, Amyloid Beta (Aβ) 1-42; experiment: cell-based or functional assay
Amyloid Beta (Aβ) 1-42 [9] = molecular target: T1, Amyloid Beta (Aβ) 1-42; experiment: cell-based or functional assay; remark: listed apart in the source
Amyloid Beta (Aβ) 1-42 [10] = molecular target: T1, Amyloid Beta (Aβ) 1-42; experiment: SPR (BIAcore T200), Aβ1-42 fibrils immobilized on CM5, Fab as analyte, global 1:1 fit; apparent KD
Amyloid Beta (Aβ) 1-42 [11] = molecular target: T1, Amyloid Beta (Aβ) 1-42; experiment: SPR (BIAcore T200), Aβ1-42 fibrils immobilized on CM5, Fab as analyte, global 1:1 fit
Amyloid Beta (Aβ) 1-42 [12] = molecular target: T1, Amyloid Beta (Aβ) 1-42; experiment: SPR on Aβ1-42 fibrils; this end is tied to h2831 by the KD values of Table 6
Amyloid Beta (Aβ) 1-42 [13] = molecular target: T1, Amyloid Beta (Aβ) 1-42; experiment: direct ELISA on plate-coated Aβ42 fibrils (FIG. 21); this end is tied to h2831 by the EC50 values of Table 7
Amyloid Beta (Aβ) 1-42 [14] = molecular target: T1, Amyloid Beta (Aβ) 1-42; experiment: SPR on Aβ1-42 fibrils; this end is tied to h2726 by the KD values of Table 6
Amyloid Beta (Aβ) 1-42 [15] = molecular target: T1, Amyloid Beta (Aβ) 1-42; experiment: direct ELISA on plate-coated Aβ42 fibrils (FIG. 21); this end is tied to h2726 by the EC50 values of Table 7
Amyloid Beta (Aβ) 1-42 [16] = molecular target: T1, Amyloid Beta (Aβ) 1-42; experiment: competition ELISA on plate-coated Aβ42 fibrils; competitor: biotinylated hBP (bapineuzumab)

B1: h2731 (antibody, V domains shown)
VH: EVQLLESGGGLVQPGGSLRLSCAASGFTFSNYGMSWVRQAPGKGLEWVASIRSGSGRTYYSDNVKGRFTISRDNSKNTLYLQMNSLRAEDTAVYYCVRYDHYSGSSDYWGQGTLVTVSS
VL: DVVMTQSPLSLPVTLGEPASISCKSSQSLLDYDGKTYLNWLLQKPGQSPQRLIYRVTNRDTGVPDRFSGSGSGTDFTLKISRVEAEDVGVYYCWQGTHFPRSFGQGTKVEIK
notes: Humanized IgG
- fold increase in assay signal (OD490) relative to aducanumab (Amyloid Beta (Aβ) 1-42 [1]): 3 fold
- koff (Amyloid Beta (Aβ) 1-42 [2]): 2.62e-05 s⁻¹
- kon (Amyloid Beta (Aβ) 1-42 [2]): 372000 M⁻¹ s⁻¹
- EC50 (Amyloid Beta (Aβ) 1-42 [3]): 0.0081 µg/mL and 0.054 nM
- Kd (Amyloid Beta (Aβ) 1-42 [4]): 0.0704 nM
- EC50 (Amyloid Beta (Aβ) 1-42 [5]): 0.0387 µg/mL
- IC50 (half-maximal fibril Abeta coating concentration at constant antibody) (Amyloid Beta (Aβ) 1-42 [6]): 0.44 µg/mL
- IC50 ratio (test:hBP) (Amyloid Beta (Aβ) 1-42 [7]): 0.61
- IC50 of Abeta spots per neuron (% Abeta control); the table gives no unit, the x axis is 'mAb (µg/mL)' (Amyloid Beta (Aβ) 1-42 [8]): 0.47 µg/mL
- Total Area (under the curve of Abeta spots per neuron, % Abeta control) (Amyloid Beta (Aβ) 1-42 [8]): 7520
- blockade of binding of soluble Aβ to rat hippocampal synapses at 1:50 molar mAb:Aβ42 ratio (Amyloid Beta (Aβ) 1-42 [9]): > 90%

B2: h2826 (antibody, V domains shown)
VH: B1 VH with Y32F, I51V, S105T
VL: B1 VL with L15P, R55K, T57S, T61S, S102T
- IC50 ratio (test:hBP) (Amyloid Beta (Aβ) 1-42 [7]): 1.1

B3: bapineuzumab Fab (Fab, V domains shown)
VH: B1 VH with S55G
VL: B1 VL with L15P, Y32S, R55L, T57S, N58K, R59L, T61S, S102T
notes: also called hBP
- Kd (Amyloid Beta (Aβ) 1-42 [10]): 5.34 nM

B4: h4921G (antibody, V domains shown)
VH: B1 VH with Y32F, I51V, S55G, S105T
VL: B1 VL with Y32S, S102T
- IC50 ratio (test:hBP) (Amyloid Beta (Aβ) 1-42 [7]): 1.01

B5: h2726 Fab (Fab, V domains shown)
VH: B1 VH
VL: B1 VL with L15P, R55K, T57S, T61S, S102T
- Kd (Amyloid Beta (Aβ) 1-42 [10]): 2.01 nM
- koff (Amyloid Beta (Aβ) 1-42 [11]): 0.000259 s⁻¹
- kon (Amyloid Beta (Aβ) 1-42 [11]): 129000 M⁻¹ s⁻¹

B6: h2831 Fab (Fab, V domains shown)
VH: B1 VH with Y32F, I51V, S105T
VL: B1 VL
- Kd (Amyloid Beta (Aβ) 1-42 [10]): 2.31 nM
- koff (Amyloid Beta (Aβ) 1-42 [11]): 0.000248 s⁻¹
- kon (Amyloid Beta (Aβ) 1-42 [11]): 108000 M⁻¹ s⁻¹

B7: h2926 (antibody, V domains shown)
VH: B1 VH with Y32F, I51V, S103T, S105T
VL: B1 VL with L15P, R55K, T57S, T61S, S102T
- IC50 ratio (test:hBP) (Amyloid Beta (Aβ) 1-42 [7]): 0.99

B8: h2727 (antibody, V domains shown)
VH: B1 VH
VL: B1 VL with L15P, R55K, T57S, T61S
- IC50 ratio (test:hBP) (Amyloid Beta (Aβ) 1-42 [7]): 3.06

B9: h2731 Fab (Fab, V domains shown)
VH: B1 VH
VL: B1 VL
- Kd (Amyloid Beta (Aβ) 1-42 [10]): 2.24 nM
- koff (Amyloid Beta (Aβ) 1-42 [11]): 0.000289 s⁻¹
- kon (Amyloid Beta (Aβ) 1-42 [11]): 129000 M⁻¹ s⁻¹

B10: h2831 (antibody, V domains shown)
VH: B1 VH with Y32F, I51V, S105T
VL: B1 VL
notes: Humanized IgG
- fold greater avidity (apparent KD) than aducanumab (Amyloid Beta (Aβ) 1-42 [12]): 5 to 11 fold
- fold increase in assay signal (OD490) relative to aducanumab (Amyloid Beta (Aβ) 1-42 [1]): 3 fold
- koff (Amyloid Beta (Aβ) 1-42 [2]): 2.94e-05 s⁻¹
- kon (Amyloid Beta (Aβ) 1-42 [2]): 265000 M⁻¹ s⁻¹
- Kd (Amyloid Beta (Aβ) 1-42 [4]): 0.111 nM
- fold lower estimated EC50 relative to aducanumab (Amyloid Beta (Aβ) 1-42 [13]): 15 to 20 fold
- EC50 (Amyloid Beta (Aβ) 1-42 [5]): 0.0462 µg/mL
- IC50 (half-maximal fibril Abeta coating concentration at constant antibody) (Amyloid Beta (Aβ) 1-42 [6]): 0.412 µg/mL
- IC50 ratio (test:hBP) (Amyloid Beta (Aβ) 1-42 [7]): 0.77
- IC50 of Abeta spots per neuron (% Abeta control); the table gives no unit, the x axis is 'mAb (µg/mL)' (Amyloid Beta (Aβ) 1-42 [8]): 0.924 µg/mL
- Total Area (under the curve of Abeta spots per neuron, % Abeta control) (Amyloid Beta (Aβ) 1-42 [8]): 6500

B11: h49k3G (antibody, V domains shown)
VH: B1 VH with Y32F, I51V, S55G, S105T
VL: B1 VL with Y32S, R55K, T57S, T61S, S102T
notes: also called h49_hum3; 49human3
- IC50 ratio (test:hBP) (Amyloid Beta (Aβ) 1-42 [7]): 2.16

B12: h4917G (antibody, V domains shown)
VH: B1 VH with Y32F, I51V, S55G, S105T
VL: B1 VL with Y32S, R55K, D60E, T61S
notes: also called h49_VK17
- IC50 ratio (test:hBP) (Amyloid Beta (Aβ) 1-42 [7]): 2.69

B13: h2726 (antibody, V domains shown)
VH: B1 VH
VL: B1 VL with L15P, R55K, T57S, T61S, S102T
notes: Humanized IgG, detected with anti-human IgG
- fold increase in assay signal (OD490) relative to aducanumab (Amyloid Beta (Aβ) 1-42 [1]): 3 fold
- koff (Amyloid Beta (Aβ) 1-42 [2]): 2.12e-05 s⁻¹
- kon (Amyloid Beta (Aβ) 1-42 [2]): 393000 M⁻¹ s⁻¹
- fold greater avidity (apparent KD) than aducanumab (Amyloid Beta (Aβ) 1-42 [14]): 5 to 11 fold
- Kd (Amyloid Beta (Aβ) 1-42 [4]): 0.054 nM
- EC50 (Amyloid Beta (Aβ) 1-42 [5]): 0.0403 µg/mL
- IC50 (half-maximal fibril Abeta coating concentration at constant antibody) (Amyloid Beta (Aβ) 1-42 [6]): 0.387 µg/mL
- IC50 ratio (test:hBP) (Amyloid Beta (Aβ) 1-42 [7]): 0.68
- IC50 of Abeta spots per neuron (% Abeta control); the table gives no unit, the x axis is 'mAb (µg/mL)' (Amyloid Beta (Aβ) 1-42 [8]): 1.67 µg/mL
- Total Area (under the curve of Abeta spots per neuron, % Abeta control) (Amyloid Beta (Aβ) 1-42 [8]): 9070
- fold lower estimated EC50 relative to aducanumab (Amyloid Beta (Aβ) 1-42 [15]): 15 to 20 fold

B14: h2931 (antibody, V domains shown)
VH: B1 VH with Y32F, I51V, S103T, S105T
VL: B1 VL
notes: Humanized IgG
- fold increase in assay signal (OD490) relative to aducanumab (Amyloid Beta (Aβ) 1-42 [1]): 3 fold
- koff (Amyloid Beta (Aβ) 1-42 [2]): 2.05e-05 s⁻¹
- kon (Amyloid Beta (Aβ) 1-42 [2]): 335000 M⁻¹ s⁻¹
- Kd (Amyloid Beta (Aβ) 1-42 [4]): 0.0612 nM
- EC50 (Amyloid Beta (Aβ) 1-42 [5]): 0.0435 µg/mL
- IC50 (half-maximal fibril Abeta coating concentration at constant antibody) (Amyloid Beta (Aβ) 1-42 [6]): 0.335 µg/mL
- IC50 ratio (test:hBP) (Amyloid Beta (Aβ) 1-42 [7]): 0.59
- IC50 of Abeta spots per neuron (% Abeta control); the table gives no unit, the x axis is 'mAb (µg/mL)' (Amyloid Beta (Aβ) 1-42 [8]): 0.627 µg/mL
- Total Area (under the curve of Abeta spots per neuron, % Abeta control) (Amyloid Beta (Aβ) 1-42 [8]): 8480

B15: h2929 (antibody, V domains shown)
VH: B1 VH with Y32F, I51V, S103T, S105T
VL: B1 VL with L15P, K24R, L30V, K44R, R55K, T57S, T61S, T97S, F103Y
- IC50 ratio (test:hBP) (Amyloid Beta (Aβ) 1-42 [7]): 1.16

B16: 4918 (antibody, V domains shown)
VH: B1 VH with Y32F, I51V, S55G, S105T
VL: B1 VL with L30M, Y32T, R55K, T57S, D60E, T61S, S102T
notes: It is not in the first reading's list; also called h4918G; h4918
- binding result (Amyloid Beta (Aβ) 1-42 [16]): binds

B17: h3818G (antibody, V domains shown)
VH: B1 VH with S30A, I51V, S55G, G56S
VL: B1 VL with L30M, Y32T, R55K, T57S, D60E, T61S, S102T
- IC50 ratio (test:hBP) (Amyloid Beta (Aβ) 1-42 [7]): 1.18

B18: h2931 Fab (Fab, V domains shown)
VH: B1 VH with Y32F, I51V, S103T, S105T
VL: B1 VL
- Kd (Amyloid Beta (Aβ) 1-42 [10]): 1.62 nM
- koff (Amyloid Beta (Aβ) 1-42 [11]): 0.000199 s⁻¹
- kon (Amyloid Beta (Aβ) 1-42 [11]): 123000 M⁻¹ s⁻¹

B19: h2927 (antibody, V domains shown)
VH: B1 VH with Y32F, I51V, S103T, S105T
VL: B1 VL with L15P, R55K, T57S, T61S
- IC50 ratio (test:hBP) (Amyloid Beta (Aβ) 1-42 [7]): 1.6
